In the nanobody polyreactivity screen of Harvey et al. (2022):

Assay: yeast display, Sf9 membrane polyspecificity reagent, FACS + sequencing; frameworks hold sequencing errors
Summary of the method: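 Synthetic nanobody libraries on Saccharomyces cerevisiae BJ5465 were galactose-induced for 36–48 hours, stained 1 hour at 4 °C with 10% biotinylated, detergent-solubilized Sf9 membrane reagent and enriched on streptavidin microbeads. FACS then separated cells into low and high (top ~1%) gates by anti-HA (expression) and streptavidin (reagent binding) fluorescence. Genes were colony-PCR amplified, MiSeq 2 × 250 sequenced and CDR-length filtered. A clone's polyreactivity label is that of its gate of origin.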

| Sequence | polyreactivity (PSR sort gate) |
| --- | --- |
| QVQLVESGGGLVQAGGSLRLSCAASGRTFVLNAMGWYRPAPGKERELVAAITLGGGSTYADSVKGRFTISRDNAKNTVYLQMNSLKPEDTAVYYCAADFHYPAFEYWGQGTQVTVSS | low polyreactivity |
| QVQLVESGGGLVQAGGSLRLSCAASGRTFVPYAMGRYRQAPGKERELVAAISSSGGSTYYADSVKGRFTISRDNAKNTVYLQMNSLKPEDTAVYFCAAKSRKGGDYWGQGTQVTVSS | high polyreactivity |
| QVQLVESGGGLVQAGGSLRLSCAASGRTFVPYAMGWYRQAPGKERELVAAITWSGGRTRYADSVKGRFTISRDNAKNTVYLQMNSLKPEDTAVYYCARYYWLYSSSYDYWGQGTQVTVSS | high polyreactivity |
| QVQLVESGGGLVQAGGSLRLSCAASGRTFVPYDMGWYRQAPGKERELVAAISSGDSTNYTDSVKGRFTISRDNAKNTVYLQMNSLKPEDTAVYYCAADLTYTMDHWGQGTQVTVSS | low polyreactivity |
| QVQLVESGGGLVQAGGSLRLSCAASGRTFVQNAMGWYRQAPGKERELVAAITWSTSGTYYADSVKGRFTISRDNAKNTVYLQMNSLKPEDTAVYYCAKYLAAYTGGGGYWGQGTQVTVSS | low polyreactivity |
| QVQLVESGGGLVQAGGSLRLSCAASGRTFVQNAMGWYRQAPGKERELVASIRYRDGSTYYADSVKGRFTISRDNAKNTVYLQMNSLKREDTAVYYCAVRIGARGRGGKDRVYYWGQGTQVTVSS | high polyreactivity |
| QVQLVESGGGLVQAGGSLRLSCAASGRTFVRYAMGWYRQAPGKEREFVAAITGSGGITYYADSVKGRFTISRDNAKNTVYLQMNSLKPEDTAVYYCAARGGFGRYWYDYWGQGTQVTVSS | high polyreactivity |
| QVQLVESGGGLVQAGGSLRLSCAASGRTFVRYAMGWYRQAPGKERELVAAISWSGATTYYADSVKGRFTISRDNAKNTVYLQMNSLKPEDTAVYYCAARFRRGITYEYWGQGTQVTVSS | high polyreactivity |
| QVQLVESGGGLVQAGGSLRLSCAASGRTFVRYTMGWYRQAPVKERELVATISYNGGRTYYADSVKGRFTISRDNAKNTVYLQMNSLKPEDTAVYYCATRLPKSSLHDYWGQGTQVTVSS | high polyreactivity |
| QVQLVESGGGLVQAGGSLRLSCAASGRTFVSNAMGWYRQAPGKERELVARITGSGGTTYYADSVKGRFTISRDNAKNTVYLQMNSLKPEDTAVYYCNADVFRKFGSPSAYKSHRYDYWGQGTQVTVSS | low polyreactivity |
| QVQLVESGGGLVQAGGSLRLSCAASGRTFVSYAMGWYRQAPGKERELVATITGSTGGTYYADSVKGRFTISRDNAKNTVYLQMNSLKPEDTAVYYCNKDYYYNPGNVASGYDYWGQGTQVTVSS | low polyreactivity |
| QVQLVESGGGLVQAGGSLRLSCAASGRTFVSYVMGWYRQAPGKERELVAAIDQSGDRTYYPDSVKGRFTISRDNAKNTVYLQMNSLKPEDTAVYYCASRWGYSSRPYYYWGQGTQVTVSS | high polyreactivity |
| QVQLVESGGGLVQAGGSLRLSCAASGRTFVTNAMGWSRQAPGKERELVAAISSGDRTYYADSVKGRFTISRDNAKNTVYLQMNSLKPEDTAVYYCAKVSRRGIVGYWGQGTQVTVSS | high polyreactivity |
| QVQLVESGGGLVQAGGSLRLSCAASGRTFVTNAMGWYRQAPGKETELVAAISGTGGSTYYADSVKGRFTISRDNAKNTVYLQMNSLKPEDTAVYYCAAQKWRRGRYRDTAGPLFAYDYWGQGTQVTVSS | low polyreactivity |
| QVQLVESGGGLVQAGGSLRLSCAASGRTFVTYTMGWYRPAPGKERELVAAISRDGRTYYADSVKGRFTISRDNAKNTVYLQMNSLKPEDTAVYYCATRYKSPSFDYWGQGTQVTVSS | high polyreactivity |
| QVQLVESGGGLVQAGGSLRLSCAASGRTFVVYAMGWYRQAPGKERELVAAITSSGNTYYADSVKGRFTISRDNAKNTVYLQMNSLKPEDTAVYYCAAYSLYGYDYWGQGTQVTVSS | low polyreactivity |
| QVQLVESGGGLVQAGGSLRLSCAASGRTFVWNAMGWYRQAPGKERELVAAISSSGGSTYYADSVKGRFTISRDNAKNTVYLQMNSLKPEDTAVYYCAARRASGFDWGQGTQVTVSS | high polyreactivity |
| QVQLVESGGGLVQAGGSLRLSCAASGRTFVWNAMGWYRQAPGTERELVAAITSGGSTNYADSVKGRFTISRDNAKNTVYLQMNSLIPEDTAVYYCGAVWQYSPRMDYWGQGTQVTVSS | low polyreactivity |
| QVQLVESGGGLVQAGGSLRLSCAASGRTFVWYVMGWYRQAPGKERELVAAISLRGGTTYYADSVKGRFTISRDNAKNTVYLQMNSLKPEDTAVYYCAIAGIRHVTSKFKGYHFGYWGQGTQVTVSS | low polyreactivity |
| QVQLVESGGGLVQAGGSLRLSCAASGRTFVYKAMGWYRQSPGKERELVAALDGGGDRTYYADSVKGRFTISRDNAKNTVYLQMNSLKPEDTAVYYCARDPGDTYYYSYPEGDYWGEGTQVTVSS | low polyreactivity |
| QVQLVESGGGLVQAGGSLRLSCAASGRTFVYYAMGWYRQAPGKEREFVATITSSGGSTYYADSVKGRFTISRDNAKNTVYLQMNSLKPEDTAVYYCAASPYIRYSKVSKYYYWGQGTQVTVSS | high polyreactivity |
| QVQLVESGGGLVQAGGSLRLSCAASGRTFVYYAMGWYRQAPGKERELVASISSVGTTKYADSVKGRFTISRDNAKNTVYLQMNSLKPEDTAVYYCAAVPLSRNIFDSWGQGTQVTVSS | low polyreactivity |

| Sequence | polyreactivity (PSR sort gate) |
| --- | --- |
| QVQLVESGGGLVQAGGSLRLSCAASGRTFWAYAMGWYRQAPGKERELVAAISVSGGRTYYADSVKGRFTISRDNAKYTVYLQMNSLKPEDSAVYYCNKRYLKSYQYYWGQGSQVTVSS | high polyreactivity |
| QVQLVESGGGLVQAGGSLRLSCAASGRTFWAYAMGWYRQAPGKERELVAVIRGSGNTYYADSVKGRFTISRDNAKNTVYLQMNSLKPEDTAVYYCAASRAVTQYSGGGYWGQGTQVTVSS | high polyreactivity |
| QVQLVESGGGLVQAGGSLRLSCAASGRTFWDYGMGWYRQAPGKERELVATISGNGGDTYYADSVKGRFTISRDNAKNTVYLQMNSLKPEDTAVYYCAADYRFYRTDRHYDYWGQGSQVTVSS | low polyreactivity |
| QVQLVESGGGLVQAGGSLRLSCAASGRTFWENAMGWYRQAPGKERELVAAISGDSGSTYYADSVKGRFTISRDNAKNTVYLQMNSLKPEDTAVYYCAADSDRDDSYPYYYWGQGTQVTVSS | low polyreactivity |
| QVQLVESGGGLVQAGGSLRLSCAASGRTFWGNAMGWYRQAPGKERELVAAIRRGGRTNYADSVKGRFTISRDNAKNTVYLQMNSLKPEDTAVYYCNALYAWSWPRGYDYWGQGTQVTVSS | high polyreactivity |
| QVQLVESGGGLVQAGGSLRLSCAASGRTFWGYGMGWYRQAPGKERELVATISSGGSTYYADSVKGRFTISRDNAKNTVYLQMNSLKPEDTAVYYCAARPPRTYWRYQSDYWGQGTQLTVSS | high polyreactivity |
| QVQLVESGGGLVQAGGSLRLSCAASGRTFWGYPMGWYRQAPGKERELVAAISSGGSTHYADSVKGRFTISRDNAKNTVYLQMNSLKPEDTAVYYCAAAVGYYAFGTYPFDDWPYDYWGQGTQVTVSS | high polyreactivity |
| QVQLVESGGGLVQAGGSLRLSCAASGRTFWKYAMGWSRQAPGKERELVAAITDDDSTDYADSVKGRFTISRDNAKNTVYLQMTRLKPEDTAVYYCNADSSRYYRALEYWGQGTQVTVSA | low polyreactivity |
| QVQLVESGGGLVQAGGSLRLSCAASGRTFWNYAMGWYRQAPGKERELVAVIRFSDGSTYYADSVKGRFTISRDNAKNTVYLQMNSLKPEDTAVYYCAAKGPRRWGSGFDYWGQATQVTVSS | low polyreactivity |
| QVQLVESGGGLVQAGGSLRLSCAASGRTFWNYSMGWYRQAPGKERELVAVIRFSDGSTYYADSVKGRFTISRDNAKNTVYLQMNSLKPEDTAVYYCAADYSLYGWWFRNDYWGQGTQVTVSS | low polyreactivity |
| QVQLVESGGGLVQAGGSLRLSCAASGRTFWPYAMGWYRQAPGKERELVAAINWGGGSTYYADSVKGRFTISRDNAKNTVYLQMNSLKPEDTAVYYCAADVGRNKMDYWGQGTQVTVSS | low polyreactivity |
| QVQLVESGGGLVQAGGSLRLSCAASGRTFWPYAMGWYRQAPGKERELVARITASGGRTYYADSVKWRFTISRDNAKNTVYLQMNSLKPEDTAVYYCATSYSTRIWTWRAGDYWGQGSQVTVSS | high polyreactivity |
| QVQLVESGGGLVQAGGSLRLSCAASGRTFWRNAMGWYRQAPGKERELVAAISSSGDRTYYADSVKGRFTISRDNANNTVYLQMNSLKPEDTAVYYCAADVRYSSRFYYWGQGTQVTVSS | high polyreactivity |
| QVQLVESGGGLVQAGGSLRLSCAASGRTFWRNAMGWYRQAPGKERELVAVISVRGSSTSYADSVKGRFTISRDNAKNTVYLQMNSLKPEDTAVYYCNKASRTYGTGYDYWGQGTQVTVSS | high polyreactivity |
| QVQLVESGGGLVQAGGSLRLSCAASGRTFWSNAMGSYRQAPGKERELVAAINTSGGNTYYADSVKGRFTISRDNAKNTVYLQMNSLKPEDTAVYFCNTDGLVRNGPFYSWGQGTQVTVSS | low polyreactivity |
| QVQLVESGGGLVQAGGSLRLSCAASGRTFWSNDMGWYRQAPGKEREFVAVISRSGSTTYYADSVKGRFTISRDNAKNTVYLQMNSRKPEDTAVYYCAADRVRSYFSRYYSTPLDYYLGQGTQVTVSS | high polyreactivity |
| QVQLVESGGGLVQAGGSLRLSCAASGRTFWSYAMGWYRQAPGKERELVAAIRTSDGITYYADSVKGRFTISRDNAKNTVYLQMNSLKPEDTAVYYCARDIRQYILYGRGDYWGQGTQVTVSS | low polyreactivity |
| QVQLVESGGGLVQAGGSLRLSCAASGRTFWTNAMGWYRQAPGKERELVAAIDRSSTSTYYADSVKGRFTISRDNAKNTVYLQMNSLKPEDTAVYYCAAENPVIVETPYGGFVGKGDSWGQGTQVTVSS | low polyreactivity |
| QVQLVESGGGLVQAGGSLRLSCAASGRTFWTYTMGWYRQAPGKERELVAAISYSGSRTYYADSVKGRFTISRDNAKNTVYLQMNSQKPEETAVYYWATDDSDYLYRTVSAWEYDYWGQGTQVTVSS | low polyreactivity |
| QVQLVESGGGLVQAGGSLRLSCAASGRTFWYNAMGWYRQAPRKERELVAAISSGSSTKYADSVKGRFTISRDNAKNTVYLQMNSLKPEDTAVYYCARGGWAYCPRYNYWGQGTQVTVSS | high polyreactivity |
| QVQLVESGGGLVQAGGSLRLSCAASGRTFWYSAMGWYRQAPGKEREFVAAISWSGGSTYYADSVKGRFTISRDNAKNTVYLQMNSLKPEDTAVYYCAADRYDSSQFYYWGQGTQVTVSS | low polyreactivity |
